# Laboratory results: patent US12679878B2, “CRF2 receptor agonists and their use in therapy” (SANOFI, priority 2020, dated 2026)
# Starred links: 1 amine or outer side, 2 acyl side, 3 side chain; linkers in the order of their positions; H or OH if unused. Non-standard residues stand in square brackets, D forms with d. Groups on a side chain read outwards from the residue. No end group written: not given here. *: point of attachment. C18 diacid = O=C(O)CCCCCCCCCCCCCCCCC(=O)*; γGlu = O=C(O)[C@H](CCC(=O)[*:2])N[*:1]; Palmitoyl = CCCCCCCCCCCCCCCC(=O)*; AEEA = NCCOCCOCC(=O)O; Aib = CC(C)(N)C(=O)O
# T1: anti-target CRF1R receptor (UniProt P34998 24-415, limits assumed)
# T1 sequence (looked up): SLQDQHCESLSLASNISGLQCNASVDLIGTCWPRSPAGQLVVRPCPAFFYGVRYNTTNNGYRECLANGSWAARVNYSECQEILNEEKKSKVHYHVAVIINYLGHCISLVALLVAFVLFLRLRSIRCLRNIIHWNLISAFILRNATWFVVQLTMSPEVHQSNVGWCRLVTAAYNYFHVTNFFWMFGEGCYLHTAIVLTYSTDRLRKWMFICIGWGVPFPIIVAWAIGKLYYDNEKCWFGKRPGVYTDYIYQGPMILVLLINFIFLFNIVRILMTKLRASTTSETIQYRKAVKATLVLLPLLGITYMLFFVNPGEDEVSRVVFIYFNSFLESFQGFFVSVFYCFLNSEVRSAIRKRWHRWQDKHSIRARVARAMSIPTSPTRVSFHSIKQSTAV
# Target: T1, anti-target CRF1R receptor
# Assay: cell-based or functional assay
"EC50[nM] 0% HSA (cAMP, CRF1R-overexpression CHO cells)","Emax (%) (cAMP, CRF1R-overexpression CHO cells)",Binder
> 1000 nM,27%,IVLSLD[dV]PTKLK([γGlu-Palmitoyl])QKLLKQERQRKEREQAEKNVRILERV-NH2 (not fully specified; printed as IVLSLDvPTKLK*QKLLKQERQRKEREQAEKNVRILERV-NH2) [peptide of SEQ ID NO: 32]
571 nM,57.4%,IVLSLD[dV]PTKLK([γGlu-Palmitoyl])QKLLKQERQR[Aib]EREQAEKNKRILERV-NH2 (N-terminus assumed; SMILES CCCCCCCCCCCCCCCC(=O)N[C@@H](CCC(=O)NCCCC[C@H](NC(=O)[C@H](CC(C)C)NC(=O)[C@H](CCCCN)NC(=O)[C@@H](NC(=O)[C@@H]1CCCN1C(=O)[C@H](NC(=O)[C@H](CC(=O)O)NC(=O)[C@H](CC(C)C)NC(=O)[C@H](CO)NC(=O)[C@H](CC(C)C)NC(=O)[C@@H](NC(=O)[C@@H](N)[C@@H](C)CC)C(C)C)C(C)C)[C@@H](C)O)C(=O)N[C@@H](CCC(N)=O)C(=O)N[C@@H](CCCCN)C(=O)N[C@@H](CC(C)C)C(=O)N[C@@H](CC(C)C)C(=O)N[C@@H](CCCCN)C(=O)N[C@@H](CCC(N)=O)C(=O)N[C@@H](CCC(=O)O)C(=O)N[C@@H](CCCNC(=N)N)C(=O)N[C@@H](CCC(N)=O)C(=O)N[C@@H](CCCNC(=N)N)C(=O)NC(C)(C)C(=O)N[C@@H](CCC(=O)O)C(=O)N[C@@H](CCCNC(=N)N)C(=O)N[C@@H](CCC(=O)O)C(=O)N[C@@H](CCC(N)=O)C(=O)N[C@@H](C)C(=O)N[C@@H](CCC(=O)O)C(=O)N[C@@H](CCCCN)C(=O)N[C@@H](CC(N)=O)C(=O)N[C@@H](CCCCN)C(=O)N[C@@H](CCCNC(=N)N)C(=O)N[C@H](C(=O)N[C@@H](CC(C)C)C(=O)N[C@@H](CCC(=O)O)C(=O)N[C@@H](CCCNC(=N)N)C(=O)N[C@H](C(N)=O)C(C)C)[C@@H](C)CC)C(=O)O) [peptide of SEQ ID NO: 19]
> 1000 nM,20.8%,Ac-IVLSLD[dV]PIKLK([AEEA-AEEA-γGlu-C18 diacid])QILLEQERQE[Aib]EREQAETNKQILEQV-NH2 (SMILES CC[C@H](C)[C@H](NC(C)=O)C(=O)N[C@H](C(=O)N[C@@H](CC(C)C)C(=O)N[C@@H](CO)C(=O)N[C@@H](CC(C)C)C(=O)N[C@@H](CC(=O)O)C(=O)N[C@@H](C(=O)N1CCC[C@H]1C(=O)N[C@H](C(=O)N[C@@H](CCCCN)C(=O)N[C@@H](CC(C)C)C(=O)N[C@@H](CCCCNC(=O)COCCOCCNC(=O)COCCOCCNC(=O)CC[C@H](NC(=O)CCCCCCCCCCCCCCCCC(=O)O)C(=O)O)C(=O)N[C@@H](CCC(N)=O)C(=O)N[C@H](C(=O)N[C@@H](CC(C)C)C(=O)N[C@@H](CC(C)C)C(=O)N[C@@H](CCC(=O)O)C(=O)N[C@@H](CCC(N)=O)C(=O)N[C@@H](CCC(=O)O)C(=O)N[C@@H](CCCNC(=N)N)C(=O)N[C@@H](CCC(N)=O)C(=O)N[C@@H](CCC(=O)O)C(=O)NC(C)(C)C(=O)N[C@@H](CCC(=O)O)C(=O)N[C@@H](CCCNC(=N)N)C(=O)N[C@@H](CCC(=O)O)C(=O)N[C@@H](CCC(N)=O)C(=O)N[C@@H](C)C(=O)N[C@@H](CCC(=O)O)C(=O)N[C@H](C(=O)N[C@@H](CC(N)=O)C(=O)N[C@@H](CCCCN)C(=O)N[C@@H](CCC(N)=O)C(=O)N[C@H](C(=O)N[C@@H](CC(C)C)C(=O)N[C@@H](CCC(=O)O)C(=O)N[C@@H](CCC(N)=O)C(=O)N[C@H](C(N)=O)C(C)C)[C@@H](C)CC)[C@@H](C)O)[C@@H](C)CC)[C@@H](C)CC)C(C)C)C(C)C) [peptide of SEQ ID NO: 160]
> 1000 nM,3.42%,Ac-IVLSLD[dV]PIKLK([AEEA-AEEA-γGlu-C18 diacid])QILLEQERQE[Aib]EREQAEKNEQILEQV-NH2 (SMILES CC[C@H](C)[C@H](NC(C)=O)C(=O)N[C@H](C(=O)N[C@@H](CC(C)C)C(=O)N[C@@H](CO)C(=O)N[C@@H](CC(C)C)C(=O)N[C@@H](CC(=O)O)C(=O)N[C@@H](C(=O)N1CCC[C@H]1C(=O)N[C@H](C(=O)N[C@@H](CCCCN)C(=O)N[C@@H](CC(C)C)C(=O)N[C@@H](CCCCNC(=O)COCCOCCNC(=O)COCCOCCNC(=O)CC[C@H](NC(=O)CCCCCCCCCCCCCCCCC(=O)O)C(=O)O)C(=O)N[C@@H](CCC(N)=O)C(=O)N[C@H](C(=O)N[C@@H](CC(C)C)C(=O)N[C@@H](CC(C)C)C(=O)N[C@@H](CCC(=O)O)C(=O)N[C@@H](CCC(N)=O)C(=O)N[C@@H](CCC(=O)O)C(=O)N[C@@H](CCCNC(=N)N)C(=O)N[C@@H](CCC(N)=O)C(=O)N[C@@H](CCC(=O)O)C(=O)NC(C)(C)C(=O)N[C@@H](CCC(=O)O)C(=O)N[C@@H](CCCNC(=N)N)C(=O)N[C@@H](CCC(=O)O)C(=O)N[C@@H](CCC(N)=O)C(=O)N[C@@H](C)C(=O)N[C@@H](CCC(=O)O)C(=O)N[C@@H](CCCCN)C(=O)N[C@@H](CC(N)=O)C(=O)N[C@@H](CCC(=O)O)C(=O)N[C@@H](CCC(N)=O)C(=O)N[C@H](C(=O)N[C@@H](CC(C)C)C(=O)N[C@@H](CCC(=O)O)C(=O)N[C@@H](CCC(N)=O)C(=O)N[C@H](C(N)=O)C(C)C)[C@@H](C)CC)[C@@H](C)CC)[C@@H](C)CC)C(C)C)C(C)C) [peptide of SEQ ID NO: 161]
618 nM,59.2%,IVLSLD[dV]PTKLK([γGlu-Palmitoyl])QKLLKQERQRKE[Aib]EQAEKNKRILERV-NH2 (N-terminus assumed; SMILES CCCCCCCCCCCCCCCC(=O)N[C@@H](CCC(=O)NCCCC[C@H](NC(=O)[C@H](CC(C)C)NC(=O)[C@H](CCCCN)NC(=O)[C@@H](NC(=O)[C@@H]1CCCN1C(=O)[C@H](NC(=O)[C@H](CC(=O)O)NC(=O)[C@H](CC(C)C)NC(=O)[C@H](CO)NC(=O)[C@H](CC(C)C)NC(=O)[C@@H](NC(=O)[C@@H](N)[C@@H](C)CC)C(C)C)C(C)C)[C@@H](C)O)C(=O)N[C@@H](CCC(N)=O)C(=O)N[C@@H](CCCCN)C(=O)N[C@@H](CC(C)C)C(=O)N[C@@H](CC(C)C)C(=O)N[C@@H](CCCCN)C(=O)N[C@@H](CCC(N)=O)C(=O)N[C@@H](CCC(=O)O)C(=O)N[C@@H](CCCNC(=N)N)C(=O)N[C@@H](CCC(N)=O)C(=O)N[C@@H](CCCNC(=N)N)C(=O)N[C@@H](CCCCN)C(=O)N[C@@H](CCC(=O)O)C(=O)NC(C)(C)C(=O)N[C@@H](CCC(=O)O)C(=O)N[C@@H](CCC(N)=O)C(=O)N[C@@H](C)C(=O)N[C@@H](CCC(=O)O)C(=O)N[C@@H](CCCCN)C(=O)N[C@@H](CC(N)=O)C(=O)N[C@@H](CCCCN)C(=O)N[C@@H](CCCNC(=N)N)C(=O)N[C@H](C(=O)N[C@@H](CC(C)C)C(=O)N[C@@H](CCC(=O)O)C(=O)N[C@@H](CCCNC(=N)N)C(=O)N[C@H](C(N)=O)C(C)C)[C@@H](C)CC)C(=O)O) [peptide of SEQ ID NO: 21]
